In the experiment the target is Zika virus prM/E heterodimer of the immature virion (Zika virus strain MR-766). The experiment can be described thus: cryo-EM structure; immature ZIKV MR-766 virions purified from NH4Cl-treated Vero E6 cells, neutral pH (TNE buffer, pH 7.4); icosahedral symmetry enforced, 8.3 Å map; homology model of prM/E (template SPOV PDB 6ZQI) fitted and refined in real space.

“Zika virus prM/E heterodimer of the immature virion (complex)”: the stoichiometry N (as a rule, a count of units in the complex or per binding partner) was found to be 3.

The record behind these values is article PMC11721464.
